The values that follow come from article PMC12637224, “The nonconserved integrin cytoplasmic region determines integrin subtype–specific characteristics by modulating talin1 binding kinetics” (The Journal of Biological Chemistry, 2025).

Test [1] concerns the target T1, HaloTag-fused talin1 (HT-talin1), endogenous knock-in in mouse primary T cells (mouse (endogenous knock-in in mouse T …, UniProt P26039 1-2541, HaloTag labelled with HT SaraFluor 650T Ligand)). Description: activated T cells, on MAdCAM1.
Test [2] deals with T1, HaloTag-fused talin1 (HT-talin1), …. Description: naive T cells, on MAdCAM1.

One may read the koff as a measure of how fast the partners let go of each other.

B1: α4/β7 integrin, endogenous on mouse primary T cells (receptor)
chain 1: YNLDPENALLYQGPSGTLFGYSVVLHSHGSKRWLIVGAPTASWLSNASVVNPGAIYRCGIRKNPNQTCEQLQSGSPSGEPCGKTCLEERDNQWLGVTLSRQPGENGSIVTCGHRWKNIFYMKSDNKLPTGICYVMPSDLRTELSKRMAPCYKDYTRKFGENFASCQAGISSFYTQDLIVMGAPGSSYWTGTVFVYNITTNQYKAFVDRQNQVKFGSYLGYSVGAGHFRSPHTTEVVGGAPQHEQIGKAYIFSIDENELNIVYEMKGKKLGSYFGASVCAVDLNADGFSDLLVGAPMQSTIREEGRVFVYINSGMGAVMVEMERVLVGSDKYAARFGESIANLGDIDNDGFEDIAIGAPQEDDLRGAVYIYNGRVDGISSTYSQRIEGQQISKSLRMFGQSISGQIDADNNGYVDVAVGAFQSDSAVLLRTRPVVIVEASLSHPESVNRTKFDCTENGLPSVCMHLTLCFSYKGKEVPGYIVLFYNVSLDVHRKAESPSRFYFFSNGTSDVITGSIRVSSSGEKCRTHQAFMRKDVRDILTPIHVEATYHLGHHVITKRNTEEFPPLQPILQQKKEKDVIRKMINFARFCAYENCSADLQVSAKVGFLKPYENKTYLAVGSMKTIMLNVSLFNAGDDAYETTLNVQLPTGLYFIKILDLEEKQINCEVTESSGIVKLACSLGYIYVDRLSRIDISFLLDVSSLSRAHEDLSISVHASCENEGELDQVRDNRVTLTIPLRYEVMLTVHGLVNPTSFVYGSSEENEPETCMAEKLNLTFHVINTGISMAPNVSVKIMVPNSFLPQDDKLFNVLDVQTTTGQCHFKHYGRECTFAQQKGIAGTLTDIVKFLSKTDKRLLYCMKADQHCLDFLCNFGKMESGKEASVHIQLEGRPSILEMDETSSLKFEIKATAFPEPHPKVIELNKDENVAHVFLEGLHHQRPKRHFTIIIITISLLLGLIVLLLISCVMWKAGFFKRQYKSILQEENRRDSWSYVNSKSNDD
chain 2: ELDTKITSSGEAAEWEDPDLSLQGSCQPVPSCQKCILSHPSCAWCKQLNFTASGEAEARRCARREELLARGCPAQELEEPRGRQEVLQDKPLSQGDRGEGATQLAPQRIRVTLRPGEPQKFRVRFLRAAGYPVDLYYLMDLSYSMKDDLERVRQLGHALLVRLQEVTHSVRIGFGSFVDKTVLPFVSTVPSKLHHPCPSRLERCQPPFSFHHVLSLTGDAQAFEREVGRQNVSGNLDSPEGGFDAILQAALCQEQIGWRNVSRLLVFTSDDTFHTAGDGKLGGIFMPSDGRCHLDSNGVYTNSAEFDYPSVGQVAQALTAANIQPIFAVTGATLPVYQELRQLIPKSAVGELSEDSSNVVQLIMDAYDSLSSTVTLEHSPLPPGVSISFESHCKGPEKTEGEAGDRGQCNDVRVNQTVDFWVTLQATHCLPEAHVLRLWALGFSEELTVELHTVCDCNCGDAQPHAPYCSDGQGDLQCGICSCAPGRLGQLCECSEADLSSPDLESGCRAPNGTGPLCSGKGRCQCGRCSCSGQSSGRLCECDDASCERHEGILCGGFGHCQCGVCHCHANHTGRACECSKSVDSCVSPEGGLCSGHGYCKCNRCQCLDGYYGALCDQCLGCKSPCEQYRDCAECGAFGTGPLAANCSVVCADVNVTLTLAPNLDDGWCKERTIDNQLFFFLVEHAASGIVLRVRPQEKGVDHTRAIILGCTGGIVAVGLGLVLAYRLSVEIYDRREYRRFEKEQQQLNWKQDNNPLYKSAITTTVNPRFQGTNGRSPSLSLTREAD
In the case of B1, the koff was determined as 0.61 s⁻¹ in test [1] and 0.576 s⁻¹ in test [2].
